Laboratory results reported in patent US20250066745A1, “MUTANTS AND USE THEREOF” (BGI SHENZHEN, priority 2021, published 2025).
Where a chain is given by its changes, count along the chain named. In names and notes the source's numbering stands. Several values for one entry are separate records, joined by “and”; a condition that tells them apart may be missing. Identical values can stand only once.

Legend:
[1] = Luminescence activity assay of purified Gaussia luciferase mutants on fluoro-coelenterazine; type: biochemical; set-up: key to Activity of mutant relative to wild-type Gaussia luciferase without the signal peptide: ratio of mutant luminescence intensity to wild-type Gaussia luciferase; conditions: for measured value, f-CTZ: purified combinatorial mutant, substrate fluoro-coelenterazine (f-CTZ); for Activity of mutant relative to wild-type Gaussia luciferase without the signal peptide: Substrate f-CTZ (Table 16); for Measured luminescence intensity (f-CTZ): purified luciferase 1 μg/mL, 10 μL, 90 μL substrate fluoro-coelenterazine 100 μM; for Ratio of luminescence intensities of advantageous mutant to wild-type Gaussia luciferase without signal peptide (f-CTZ): substrate fluoro-coelenterazine 100 μM, vs no sp Gluc average
Method in brief: (§1)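 Readout: luminescence intensity, as ratio to signal-peptide-free wild-type enzyme. Enzyme 1 μg/mL, substrate 100 μM stock, 10 μL + 90 μL; buffer 50 mM Tris-HCl pH 8.0, 100 mM NaCl, 0.1% Tween-20.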

[2] = Substrate specificity test of combinatorial mutants: activity on coelenterazine derivative ZS26; type: biochemical; conditions: for measured value, ZS-26: purified combinatorial mutant, substrate coelenterazine derivative ZS26; for ratio of catalytic activities, ZS2/ZS26 / ratio of catalytic activities, CTZ/ZS26 / ratio of catalytic activities, f-CTZ/ZS26: substrate specificity; for ratio of catalytic activities, ZS2/ZS26: ZS2 relative to ZS26; for ratio of catalytic activities, CTZ/ZS26: coelenterazine relative to ZS26; for ratio of catalytic activities, f-CTZ/ZS26: fluoro-coelenterazine relative to ZS26
Experimental: In this Example, the protein concentration was determined with a BCA quantitative kit (Thermo Scientific™ Pierce™ BCA Protein Assay Kit) accurately. The purified luciferase obtained in Example 5 was diluted with diluent (50 mM Tris-HCl, pH 8.0, 100 mM NaCl, 0.1% (v/v) Tween-20) to 1 μg/mL. The diluted luciferase, taken for 10 μL, was moved into a black 96-well plate, then added with 90 μL of the substrates coelenterazine, fluoro-coelenterazine or coelenterazine derivative ZS2 (purchased from Biolab) which was diluted into 100 μM with the same diluent, and the luminescence intensity of the plate was read with a self-luminescence module of a microplate reader. The mutation site of the mutant, the measured luminescence intensity, the ratio of luminescence intensities of the advantageous mutants to the wild-type Gaussia luciferase without the signal peptide having the sequence shown in SEQ ID NO: 3 are shown in Table 15. The results of catalytic activity assay of the advantageous mutants relative to the wild-type Gaussia luciferase without the signal peptide having the sequence shown in SEQ ID NO: 3 on substrate coelenterazine are shown in FIG. 6. […] The results of catalytic activity assay of the advantageous mutants relative to the wild-type Gaussia luciferase without the signal peptide having the sequence shown in SEQ ID NO: 3 on substrate fluoro-coelenterazine are shown in FIG. 7.
The new mutant library constructed in Example 7 was screened and tested for substrate specificity. Expression and purification schemes were the same as that in Example 5, and the activity assay scheme was the same as that in Example 6. The respective catalytic activities of combinatorial mutants on coelenterazine, fluoro-coelenterazine or coelenterazine derivative ZS2, and coelenterazine derivative ZS26 (purchased from BIOLAB) were assayed, and comparisons among the substrate specificities of the combinatorial mutants were based on the ratios of catalytic activities on two corresponding substrates.

[3] = Luminescence activity assay of purified Gaussia luciferase mutants on coelenterazine derivative ZS2; type: biochemical; set-up: key to Activity of mutant relative to wild-type Gaussia luciferase without the signal peptide: ratio of mutant luminescence intensity to wild-type Gaussia luciferase; conditions: for measured value, ZS-2: purified combinatorial mutant, substrate coelenterazine derivative ZS2; for ratios of catalytic activities on ZS2 relative to ZS26: substrate specificity, FIG. 10, in words; for Activity of mutant relative to wild-type Gaussia luciferase without the signal peptide: Substrate ZS2 (Table 16); for Measured luminescence intensity (ZS2): purified luciferase 1 μg/mL, 10 μL, 90 μL substrate ZS2 100 μM; for Ratio of luminescence intensities of advantageous mutant to wild-type Gaussia luciferase without signal peptide (ZS2): substrate ZS2 100 μM, vs no sp Gluc average
Method in brief: as §1

[4] = Luminescence activity assay of purified Gaussia luciferase mutants on coelenterazine; type: biochemical; set-up: key to Activity of mutant relative to wild-type Gaussia luciferase without the signal peptide: ratio of mutant luminescence intensity to wild-type Gaussia luciferase; conditions: for measured value, CTZ: purified combinatorial mutant, substrate coelenterazine (CTZ); for Activity of mutant relative to wild-type Gaussia luciferase without the signal peptide: Substrate CTZ (Table 16); for Measured luminescence intensity (CTZ): purified luciferase 1 μg/mL, 10 μL, 90 μL substrate coelenterazine 100 μM; for Ratio of luminescence intensities of advantageous mutant to wild-type Gaussia luciferase without signal peptide (CTZ): substrate coelenterazine 100 μM, vs no sp Gluc average
Method in brief: as §1

[5] = Activity assay of Gaussia luciferase at bacteria solution level (substrate CTZ); type: cell-based; conditions: OrigamiB (DE3) competent cells; 100 μL induced bacteria solution; CTZ final 100 μM; FIG. 4
Experimental: The expression plasmids pET28a-Gluc wt and pCold-no sp Glue obtained in Example 1 were individually transformed into BL21 (DE3) competent cells or OrigamiB (DE3) chemically competent cells (WEIDI BIO, EC1020S) and applied to plate medium. Then single colonies were picked from the plate for culture overnight at 37° C. The cultured clones were diluted at the ratio of 1:100 the next day, and transferred into 3 mL of fresh LB medium with ampicillin at 100 μg/mL, shaked at 37° C., 200 rpm until OD600≈0.5-0.6, followed by cooling on ice for 1 hour. IPTG was added at a final concentration of 1 mM as inducer for induction overnight at 16° C.
The induced bacteria solution, taken for 100 μL, was moved into a black 96-well plate, then added with 100 μL of a substrate CTZ (purchased from BIOLAB) at a final concentration of 100 μM. The luminescence intensity was read with a self-luminescence module of a microplate reader. […] Accordingly, the subsequent experiments were conducted with the Gaussia luciferase without the signal peptide.

B1: mutant E1-G12: Gaussia luciferase combinatorial mutant encoded by SEQ ID NO: 42 (protein)
chain: MKPTENNEDLNILDIAKNFIETDLDADRGKLPGKKLPLEVLKEMEANARIAGCTRGCLICLSKIKCTLKMKKFIPGRCHTYEGDKSTGQGGIGPAIVDIPEIPGFKDMEPMEQFIAQVDLCEDCTTGCLKGLANVQCSDLLKKWLPQRCATFASKIQGQVDKIKGAGGD
- measured value, f-CTZ [1]: 94900
- measured value, ZS-26 [2]: 31521
- ratio of catalytic activities, ZS2/ZS26 [2]: 12.73
- ratio of catalytic activities, CTZ/ZS26 [2]: 21.87
- ratio of catalytic activities, f-CTZ/ZS26 [2]: 3.01
- measured value, ZS-2 [3]: 401271
- ratios of catalytic activities on ZS2 relative to ZS26 [3]: significantly improved
- measured value, CTZ [4]: 689624

B2: mutant 4-C12: Gaussia luciferase combinatorial mutant encoded by SEQ ID NO: 43 (protein)
chain: B1 chain with L10F, L13V, D14A, I15V, K17S, I20A, E21T, I50K, L68P
- measured value, f-CTZ [1]: 167522
- measured value, ZS-26 [2]: 64057
- ratio of catalytic activities, ZS2/ZS26 [2]: 12.08
- ratio of catalytic activities, CTZ/ZS26 [2]: 26.16
- ratio of catalytic activities, f-CTZ/ZS26 [2]: 2.62
- measured value, ZS-2 [3]: 773694
- ratios of catalytic activities on ZS2 relative to ZS26 [3]: significantly improved
- measured value, CTZ [4]: 1675889

B3: F26L N27H V29C V31I S33V A36Q T37S L40G: Gaussia luciferase mutant (protein)
chain: MGVKVLFALICIAVAEAKPTENNEDLHICAIAVNFQSTDGDADRGKLPGKKLPLEVLKEMEANARKAGCTRGCLICLSHIKCTPKMKKFIPGRCHTYEGDKESAQGGIGEAIVDIPEIPGFKDLEPMEQFIAQVDLCVDCTTGCLKGLANVQCSDLLKKWLPQRCATFASKIQGQVDKIKGAGGD
modifications: SIGNAL (1)..(17)
notes: Gaussia luciferase mutant
- Activity of mutant relative to wild-type Gaussia luciferase without the signal peptide [1]: 0.095
- Activity of mutant relative to wild-type Gaussia luciferase without the signal peptide [3]: 0.067
- Activity of mutant relative to wild-type Gaussia luciferase without the signal peptide [4]: 0.066

B4: F26N V29S A30D S33D A36T T37A L40G: Gaussia luciferase mutant (protein)
chain: B3 chain with L26N, H27N, C29S, A30D, I31V, V33D, Q36T, S37A
modifications: SIGNAL (1)..(17)
notes: Gaussia luciferase mutant
- Activity of mutant relative to wild-type Gaussia luciferase without the signal peptide [1]: 0.121
- Activity of mutant relative to wild-type Gaussia luciferase without the signal peptide [3]: 0.106
- Activity of mutant relative to wild-type Gaussia luciferase without the signal peptide [4]: 0.098

B5: F26L V29A V31I A32D S33R A36N T37E LA0P: Gaussia luciferase mutant (protein)
chain: B3 chain with H27N, C29A, A32D, V33R, Q36N, S37E, G40L
- Activity of mutant relative to wild-type Gaussia luciferase without the signal peptide [1]: 0.402
- Activity of mutant relative to wild-type Gaussia luciferase without the signal peptide [3]: 0.385
- Activity of mutant relative to wild-type Gaussia luciferase without the signal peptide [4]: 0.406

B6: no sp Gluc: wild type Gaussia luciferase without signal peptide, having a sequence shown in SEQ ID NO: 3 (protein)
chain: KPTENNEDFNIVAVASNFATTDLDADRGKLPGKKLPLEVLKEMEANARKAGCTRGCLICLSHIKCTPKMKKFIPGRCHTYEGDKESAQGGIGEAIVDIPEIPGFKDLEPMEQFIAQVDLCVDCTTGCLKGLANVQCSDLLKKWLPQRCATFASKIQGQVDKIKGAGGD
- Measured luminescence intensity (f-CTZ) [1]: 5662 and 7198 and 6191
- Measured luminescence intensity (f-CTZ) ([1]; listed as no sp Gluc average): 6350.333
- Ratio of luminescence intensities of advantageous mutant to wild-type Gaussia luciferase without signal peptide (f-CTZ) [1]: 0.89 and 1.13 and 0.97
- Ratio of luminescence intensities of advantageous mutant to wild-type Gaussia luciferase without signal peptide (f-CTZ) ([1]; listed as no sp Gluc average): 1
- Measured luminescence intensity (ZS2) [3]: 18344 and 20707 and 22415
- Measured luminescence intensity (ZS2) ([3]; listed as no sp Gluc average): 20488.67
- Ratio of luminescence intensities of advantageous mutant to wild-type Gaussia luciferase without signal peptide (ZS2) [3]: 0.9 and 1.01 and 1.09
- Ratio of luminescence intensities of advantageous mutant to wild-type Gaussia luciferase without signal peptide (ZS2) ([3]; listed as no sp Gluc average): 1
- luminescence value at bacteria solution level [5]: highest luminescence value
- Measured luminescence intensity (CTZ) [4]: 253597 and 276603 and 266322
- Measured luminescence intensity (CTZ) ([4]; listed as no sp Gluc average): 265507.3
- Ratio of luminescence intensities of advantageous mutant to wild-type Gaussia luciferase without signal peptide (CTZ) [4]: 0.96 and 1.04 and 1
- Ratio of luminescence intensities of advantageous mutant to wild-type Gaussia luciferase without signal peptide (CTZ) ([4]; listed as no sp Gluc average): 1
